Data set [1] concerns the target complement Factor D (fD) (Homo sapiens) (UniProt P00746). The data set is described as follows: inhibition. The note with it: control oligo.
For data set [2], the target named is complement Factor D (fD) in C1q-depleted human serum (Homo sapiens) (UniProt P00746). The data set is described as follows: inhibition. The settings on record: hemolysis; non-specific control oligo.
Data set [3] deals with complement Factor D (fD) (Homo sapiens) (UniProt P00746). The data set is described as follows: flow. The settings on record: 2'-F G, 2'-OMe A,C,U, 37 C.
[4] abbreviates: SB1T, 100 nM AFD Fab reduces signal about 75-90%.

A value given as a limit tells only on which side of the number the result lay.

Drawing on patent US20190032056, this text covers activity (% esterase activity), IC50 and Kd for 4 substances.

A word on the IC50: it is the point on the concentration scale where inhibition reaches its midpoint. Low readings indicate higher potency, high ones lower potency. One may read the Kd as the concentration at which binding is half-saturated. A high value points to a looser complex.

Sequence of complement Factor D (fD) (Homo sapiens) (P00746 26-253): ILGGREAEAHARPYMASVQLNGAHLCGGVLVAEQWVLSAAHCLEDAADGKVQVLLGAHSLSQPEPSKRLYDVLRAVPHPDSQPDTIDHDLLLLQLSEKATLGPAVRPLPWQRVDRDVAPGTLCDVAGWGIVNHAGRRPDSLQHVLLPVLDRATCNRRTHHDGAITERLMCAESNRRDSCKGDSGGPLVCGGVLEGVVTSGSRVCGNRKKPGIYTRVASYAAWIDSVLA
Sequence of complement Factor D (fD) in C1q-depleted human serum (Homo sapiens) (P00746 26-253): as above

In data set [1], C8 non-specific control oligo came in with an activity (% esterase activity) of 105. In data set [2], this substance displayed an IC50 above 160 nM.
On to “GGGAGUGUGUACGAGGCAUUAGGCCGCCNNNNNNNNNNNNNNNNNNNNNNNNNNNNNNGGCGGCUUUGAUACUUGAUCGCCCUAGAAGC [N30S library round 6]”, for which the Kd in data set [3] (SB1T with BSA and ssDNA, bead-immobilized fD) is 34.4 nM.
Turning to “GGGAGUGUGUACGAGGCAUUAGGCCGCCNNNNNNNNNNNNNNNNNNNNNNNNNNNNNNGGCGGCUUUGAUACUUGAUCGCCCUAGAAGC [N30S library round 7]”, the Kd in data set [3] (setting [4]) was 45.1 nM.
Take “GGGAGUGUGUACGAGGCAUUAGGCCGCCNNNNNNNNNNNNNNNNNNNNNNNNNNNNNNGGCGGCUUUGAUACUUGAUCGCCCUAGAAGC [N30S library round 8]”: in data set [3] (setting [4]), the Kd turned out to be 8.8 nM.
